Test results published in article PMC8673433 (ImmunoHorizons, 2021).

What was measured:
[1] = target: full-length human TLR4 encoded by pBIND-TLR4 (human) (UniProt O00206); assay: two-hybrid
[2] = target: full-length human TLR4 encoded by pBIND-TLR4 (human, UniProt O00206 24-839); assay: two-hybrid
Chain of full-length human TLR4 encoded by pBIND-TLR4 (O00206 24-839): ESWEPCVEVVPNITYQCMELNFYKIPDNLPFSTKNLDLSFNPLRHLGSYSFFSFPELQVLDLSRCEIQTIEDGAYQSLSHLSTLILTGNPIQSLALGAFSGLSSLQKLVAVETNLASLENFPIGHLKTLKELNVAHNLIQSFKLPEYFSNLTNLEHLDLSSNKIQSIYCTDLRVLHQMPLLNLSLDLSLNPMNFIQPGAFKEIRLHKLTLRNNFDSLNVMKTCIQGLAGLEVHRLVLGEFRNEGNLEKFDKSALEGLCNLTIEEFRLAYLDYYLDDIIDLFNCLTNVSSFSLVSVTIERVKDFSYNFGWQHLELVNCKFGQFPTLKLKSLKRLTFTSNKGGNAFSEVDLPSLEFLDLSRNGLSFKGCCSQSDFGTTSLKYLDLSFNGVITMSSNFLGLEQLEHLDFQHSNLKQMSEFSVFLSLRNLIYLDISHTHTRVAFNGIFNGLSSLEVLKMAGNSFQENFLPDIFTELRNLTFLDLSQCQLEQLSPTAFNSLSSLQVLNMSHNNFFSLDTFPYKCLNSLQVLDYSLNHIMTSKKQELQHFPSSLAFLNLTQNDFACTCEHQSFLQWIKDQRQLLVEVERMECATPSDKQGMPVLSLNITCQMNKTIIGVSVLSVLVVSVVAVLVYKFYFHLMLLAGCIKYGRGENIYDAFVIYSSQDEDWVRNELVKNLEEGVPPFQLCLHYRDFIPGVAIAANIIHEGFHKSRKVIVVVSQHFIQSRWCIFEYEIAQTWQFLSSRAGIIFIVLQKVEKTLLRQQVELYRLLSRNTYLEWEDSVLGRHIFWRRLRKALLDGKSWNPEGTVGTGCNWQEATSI

Chain of full-length human TLR4 encoded by pBIND-TLR4 (human) (O00206 24-839): as above

| percent binding to TLR4 relative to SPA4 peptide (RLU) [1] | percent binding to TLR4 relative to SPA4 peptide (RLU) [2] | Molecule |
| --- | --- | --- |
| 74% |  | SPA4 peptide alanine mutant NYTXXXRG-12–19→AAAXXXAA encoded by pACT (mammalian two-hybrid fusion) |
|  | 81% | GAFRYSDGTPVNYTNWYRGE [SPA4 peptide alanine mutant D-2→A encoded by pACT (mammalian two-hybrid fusion)] |
